Measured values taken from paper PMC8228192, “Parallel and Sequential Pathways of Molecular Recognition of a Tandem-Repeat Protein and Its Intrinsically Disordered Binding Partner” (Biomolecules, 2021).
No end group written: not given here.

T1: ARM repeat domain of human β-catenin (residues 134–671) (human, UniProt P35222 134-671)
T1 construct: β-catenin, human, ARM repeat domain, residues 134–671; Plasmid was a gift from W.I. Weis; source: E. coli C41, purified (glutathione-Sepharose 4B, thrombin cleavage on resin, Mono-Q)
T1 sequence (looked up): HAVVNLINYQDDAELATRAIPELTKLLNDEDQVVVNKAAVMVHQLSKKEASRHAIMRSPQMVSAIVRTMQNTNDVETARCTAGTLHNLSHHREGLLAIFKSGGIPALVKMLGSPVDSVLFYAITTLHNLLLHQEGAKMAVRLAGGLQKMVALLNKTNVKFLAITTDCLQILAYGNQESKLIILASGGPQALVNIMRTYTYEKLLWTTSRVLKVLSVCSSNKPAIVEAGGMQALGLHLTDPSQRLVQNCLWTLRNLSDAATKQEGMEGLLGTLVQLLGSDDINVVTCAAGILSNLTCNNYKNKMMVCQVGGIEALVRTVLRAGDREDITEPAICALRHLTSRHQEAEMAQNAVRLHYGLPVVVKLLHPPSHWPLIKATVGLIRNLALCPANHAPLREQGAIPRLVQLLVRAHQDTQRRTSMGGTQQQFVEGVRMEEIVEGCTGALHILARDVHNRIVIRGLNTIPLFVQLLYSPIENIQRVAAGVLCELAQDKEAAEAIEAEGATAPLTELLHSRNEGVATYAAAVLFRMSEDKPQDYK


How the values were obtained:
Conditions in all cases: both partners purified
[1] = biological target: T1, ARM repeat domain of human β-catenin …; experiment: ITC; β-catenin 2–4 µM in the cell, TCF7L2 18–40 µM in the syringe; PBS, 1 mM DTT, 30 °C; one-site binding fit
[2] = biological target: T1, ARM repeat domain of human β-catenin …; experiment: stopped-flow fluorescence kinetics (dissociation); pre-formed 1:1 complex (200 nM) of labelled TCF7L2 and β-catenin mixed 1:1 with 50-times molar excess of unlabelled TCF7L2 (10 µM); PBS, 1 mM DTT, 15 °C; fitted to sums of exponential phases
[3] = biological target: T1, ARM repeat domain of human β-catenin …; experiment: stopped-flow fluorescence kinetics (association); 10 nM fluorescein-labelled TCF7L2 mixed 1:1 with 100–1000 nM unlabelled β-catenin, pseudo-first-order; PBS, 1 mM DTT, 15 °C; kon from the linear fit of kobs against β-catenin concentration
[4] = biological target: T1, ARM repeat domain of human β-catenin …; experiment: fluorescence spectroscopy kinetics (dissociation, fluorimeter); pre-formed 1:1 complex of labelled TCF7L2 and β-catenin mixed 1:1 with 50-times molar excess of unlabelled TCF7L2; PBS, 1 mM DTT, 15 °C; fitted to sums of exponential phases

Row | Binder | binding result [1] | koff,major (major slow phase of biphasic dissociation) [2] | koff,minor (minor fast phase of biphasic dissociation) [2] | kon [3] | koff,major (major slow phase of biphasic dissociation) [4] | koff,minor (minor fast phase of biphasic dissociation) [4]
1 | TCF7L2 (1–54), wild type, unlabelled (domain or fragment, UniProt Q9NQB0 1-54, looked up, also called wild-type TCF7L2 (1–54); source: E. coli C41, purified (Ni-NTA, thrombin cleavage, Superdex 75)) MPQLNGGGGDDLGANDELISFKDEGEQEEKSSENSSAERDLADVKSSLVNESET | binds |  |  |  |  | 
2 | TCF7L2 (1–54) S31C I19A, fluorescein-labelled (domain or fragment, UniProt Q9NQB0 1-54, looked up, One extra serine is left behind after thrombin cleavage of the tag; also called TCF7L2 I19A; source: E. coli C41, purified (Ni-NTA, thrombin cleavage, Superdex 75), labelled with fluorescein maleimide) MPQLNGGGGDDLGANDELASFKDEGEQEEKC(fluorescein maleimide)SENSSAERDLADVKSSLVNESET |  | 0.011 ± 0.5 s⁻¹ | 0.207 ± 10 s⁻¹ | 7.04e+07 ± 0.52 M⁻¹ s⁻¹ |  | 
3 | TCF7L2 (1–54) S31C E17A, fluorescein-labelled (domain or fragment, UniProt Q9NQB0 1-54, looked up, One extra serine is left behind after thrombin cleavage of the tag; source: E. coli C41, purified (Ni-NTA, thrombin cleavage, Superdex 75), labelled with fluorescein maleimide) MPQLNGGGGDDLGANDALISFKDEGEQEEKC(fluorescein maleimide)SENSSAERDLADVKSSLVNESET |  |  |  | 6.3e+07 ± 0.42 M⁻¹ s⁻¹ | 0.00891 ± 2.9 s⁻¹ | 0.0283 ± 1.9 s⁻¹
4 | TCF7L2 (1–54) S31C E29A, fluorescein-labelled (domain or fragment, UniProt Q9NQB0 1-54, looked up, One extra serine is left behind after thrombin cleavage of the tag; source: E. coli C41, purified (Ni-NTA, thrombin cleavage, Superdex 75), labelled with fluorescein maleimide) MPQLNGGGGDDLGANDELISFKDEGEQEAKC(fluorescein maleimide)SENSSAERDLADVKSSLVNESET |  |  |  | 5.73e+07 ± 0.43 M⁻¹ s⁻¹ | 0.000897 ± 0.44 s⁻¹ | 0.00245 ± 0.21 s⁻¹
5 | TCF7L2 (1–54) S31C E24A, fluorescein-labelled (domain or fragment, UniProt Q9NQB0 1-54, looked up, One extra serine is left behind after thrombin cleavage of the tag; source: E. coli C41, purified (Ni-NTA, thrombin cleavage, Superdex 75), labelled with fluorescein maleimide) MPQLNGGGGDDLGANDELISFKDAGEQEEKC(fluorescein maleimide)SENSSAERDLADVKSSLVNESET |  |  |  | 6.05e+07 ± 0.12 M⁻¹ s⁻¹ | 0.000503 ± 0.4 s⁻¹ | 0.00153 ± 0.21 s⁻¹
6 | TCF7L2 (1–54) S31C F21A, fluorescein-labelled (domain or fragment, UniProt Q9NQB0 1-54, looked up, One extra serine is left behind after thrombin cleavage of the tag; source: E. coli C41, purified (Ni-NTA, thrombin cleavage, Superdex 75), labelled with fluorescein maleimide) MPQLNGGGGDDLGANDELISAKDEGEQEEKC(fluorescein maleimide)SENSSAERDLADVKSSLVNESET |  | 0.0258 ± 2 s⁻¹ | 0.423 ± 15 s⁻¹ | 4.82e+07 ± 0.17 M⁻¹ s⁻¹ |  | 
7 | TCF7L2 (1–54) S31C D23A, fluorescein-labelled (domain or fragment, UniProt Q9NQB0 1-54, looked up, One extra serine is left behind after thrombin cleavage of the tag; source: E. coli C41, purified (Ni-NTA, thrombin cleavage, Superdex 75), labelled with fluorescein maleimide) MPQLNGGGGDDLGANDELISFKAEGEQEEKC(fluorescein maleimide)SENSSAERDLADVKSSLVNESET |  |  |  | 5.31e+07 ± 0.25 M⁻¹ s⁻¹ | 0.0003 ± 0.16 s⁻¹ | 0.00239 ± 0.7 s⁻¹
8 | TCF7L2 (1–54) S31C E38A, fluorescein-labelled (domain or fragment, UniProt Q9NQB0 1-54, looked up, One extra serine is left behind after thrombin cleavage of the tag; source: E. coli C41, purified (Ni-NTA, thrombin cleavage, Superdex 75), labelled with fluorescein maleimide) MPQLNGGGGDDLGANDELISFKDEGEQEEKC(fluorescein maleimide)SENSSAARDLADVKSSLVNESET |  |  |  | 6.2e+07 ± 0.19 M⁻¹ s⁻¹ | 0.000539 ± 0.5 s⁻¹ | 0.00261 ± 0.28 s⁻¹
9 | TCF7L2 (1–54) S31C E28A, fluorescein-labelled (domain or fragment, UniProt Q9NQB0 1-54, looked up, One extra serine is left behind after thrombin cleavage of the tag; source: E. coli C41, purified (Ni-NTA, thrombin cleavage, Superdex 75), labelled with fluorescein maleimide) MPQLNGGGGDDLGANDELISFKDEGEQAEKC(fluorescein maleimide)SENSSAERDLADVKSSLVNESET |  |  |  | 5.84e+07 ± 0.35 M⁻¹ s⁻¹ | 0.000496 ± 0.35 s⁻¹ | 0.00116 ± 0.28 s⁻¹
10 | TCF7L2 (1–54) S31C D23A E24A E26A E28A E29A (5X), fluorescein-labelled (domain or fragment, UniProt Q9NQB0 1-54, looked up, One extra serine is left behind after thrombin cleavage of the tag; also called quintuple mutant; 5X variant; source: E. coli C41, purified (Ni-NTA, thrombin cleavage, Superdex 75), labelled with fluorescein maleimide) MPQLNGGGGDDLGANDELISFKAAGAQAAKC(fluorescein maleimide)SENSSAERDLADVKSSLVNESET |  |  |  | 4.26e+07 ± 0.17 M⁻¹ s⁻¹ | 0.000295 ± 0.23 s⁻¹ | 0.00234 ± 0.33 s⁻¹
11 | TCF7L2 (1–54) S31C E26A, fluorescein-labelled (domain or fragment, UniProt Q9NQB0 1-54, looked up, One extra serine is left behind after thrombin cleavage of the tag; source: E. coli C41, purified (Ni-NTA, thrombin cleavage, Superdex 75), labelled with fluorescein maleimide) MPQLNGGGGDDLGANDELISFKDEGAQEEKC(fluorescein maleimide)SENSSAERDLADVKSSLVNESET |  |  |  | 5.59e+07 ± 0.22 M⁻¹ s⁻¹ | 0.000474 ± 0.3 s⁻¹ | 0.00166 ± 0.16 s⁻¹
12 | TCF7L2 (1–54) S31C K45A, fluorescein-labelled (domain or fragment, UniProt Q9NQB0 1-54, looked up, One extra serine is left behind after thrombin cleavage of the tag; source: E. coli C41, purified (Ni-NTA, thrombin cleavage, Superdex 75), labelled with fluorescein maleimide) MPQLNGGGGDDLGANDELISFKDEGEQEEKC(fluorescein maleimide)SENSSAERDLADVASSLVNESET |  |  |  | 1.031e+08 ± 0.19 M⁻¹ s⁻¹ | 0.00219 ± 0.4 s⁻¹ | 0.015 ± 1.3 s⁻¹
13 | TCF7L2 (1–54) S31C E24A E29A, fluorescein-labelled (domain or fragment, UniProt Q9NQB0 1-54, looked up, One extra serine is left behind after thrombin cleavage of the tag; also called double mutant; source: E. coli C41, purified (Ni-NTA, thrombin cleavage, Superdex 75), labelled with fluorescein maleimide) MPQLNGGGGDDLGANDELISFKDAGEQEAKC(fluorescein maleimide)SENSSAERDLADVKSSLVNESET |  |  |  | 6.13e+07 ± 0.34 M⁻¹ s⁻¹ | 0.000425 ± 0.29 s⁻¹ | 0.00173 ± 0.14 s⁻¹

Next, values leading:

Row | binding result [1] | koff,major (major slow phase of biphasic dissociation) [2] | koff,minor (minor fast phase of biphasic dissociation) [2] | kon [3] | koff,major (major slow phase of biphasic dissociation) [4] | koff,minor (minor fast phase of biphasic dissociation) [4] | Binder
14 |  | 0.0993 ± 17 s⁻¹ | 0.616 ± 111 s⁻¹ | 5.95e+07 ± 0.24 M⁻¹ s⁻¹ |  |  | TCF7L2 (1–54) S31C L41A, fluorescein-labelled (domain or fragment, UniProt Q9NQB0 1-54, looked up, One extra serine is left behind after thrombin cleavage of the tag; source: E. coli C41, purified (Ni-NTA, thrombin cleavage, Superdex 75), labelled with fluorescein maleimide) MPQLNGGGGDDLGANDELISFKDEGEQEEKC(fluorescein maleimide)SENSSAERDAADVKSSLVNESET
15 |  |  |  | 7.19e+07 ± 0.13 M⁻¹ s⁻¹ | 0.000977 ± 0.75 s⁻¹ | 0.00264 ± 0.2 s⁻¹ | TCF7L2 (1–54) S31C L12A, fluorescein-labelled (domain or fragment, UniProt Q9NQB0 1-54, looked up, One extra serine is left behind after thrombin cleavage of the tag; source: E. coli C41, purified (Ni-NTA, thrombin cleavage, Superdex 75), labelled with fluorescein maleimide) MPQLNGGGGDDAGANDELISFKDEGEQEEKC(fluorescein maleimide)SENSSAERDLADVKSSLVNESET
16 |  |  |  | 5.67e+07 ± 0.6 M⁻¹ s⁻¹ | 0.00132 ± 0.1 s⁻¹ | 0.00424 ± 0.13 s⁻¹ | TCF7L2 (1–54) S31C L48A, fluorescein-labelled (domain or fragment, UniProt Q9NQB0 1-54, looked up, One extra serine is left behind after thrombin cleavage of the tag; source: E. coli C41, purified (Ni-NTA, thrombin cleavage, Superdex 75), labelled with fluorescein maleimide) MPQLNGGGGDDLGANDELISFKDEGEQEEKC(fluorescein maleimide)SENSSAERDLADVKSSAVNESET
17 |  |  |  | 7.33e+07 ± 0.14 M⁻¹ s⁻¹ | 0.000573 ± 0.4 s⁻¹ | 0.00152 ± 0.28 s⁻¹ | TCF7L2 (1–54) S31C, labelled with fluorescein maleimide at Cys31 (domain or fragment, UniProt Q9NQB0 1-54, looked up, One extra serine is left behind after thrombin cleavage of the tag; also called fluorescein-labelled WT; fluorescent-labelled WT TCF7L2 (1–54); source: E. coli C41, purified (Ni-NTA, thrombin cleavage, Superdex 75), labelled with fluorescein maleimide) MPQLNGGGGDDLGANDELISFKDEGEQEEKC(fluorescein maleimide)SENSSAERDLADVKSSLVNESET
18 |  | 0.0742 ± 8 s⁻¹ | 0.498 ± 70 s⁻¹ | 5.05e+07 ± 0.46 M⁻¹ s⁻¹ |  |  | TCF7L2 (1–54) S31C V44A, fluorescein-labelled (domain or fragment, UniProt Q9NQB0 1-54, looked up, One extra serine is left behind after thrombin cleavage of the tag; source: E. coli C41, purified (Ni-NTA, thrombin cleavage, Superdex 75), labelled with fluorescein maleimide) MPQLNGGGGDDLGANDELISFKDEGEQEEKC(fluorescein maleimide)SENSSAERDLADAKSSLVNESET
19 |  |  |  | 6.25e+07 ± 0.23 M⁻¹ s⁻¹ | 0.000442 ± 0.15 s⁻¹ | 0.00365 ± 0.83 s⁻¹ | TCF7L2 (1–54) S31C N15A, fluorescein-labelled (domain or fragment, UniProt Q9NQB0 1-54, looked up, One extra serine is left behind after thrombin cleavage of the tag; source: E. coli C41, purified (Ni-NTA, thrombin cleavage, Superdex 75), labelled with fluorescein maleimide) MPQLNGGGGDDLGAADELISFKDEGEQEEKC(fluorescein maleimide)SENSSAERDLADVKSSLVNESET
20 | binds |  |  |  |  |  | TCF7L2 (1–54) S31C, unlabelled (domain or fragment, UniProt Q9NQB0 1-54, looked up, One extra serine is left behind after thrombin cleavage of the tag; also called WT; pseudo-wild type; source: E. coli C41, purified (Ni-NTA, thrombin cleavage, Superdex 75)) MPQLNGGGGDDLGANDELISFKDEGEQEEKCSENSSAERDLADVKSSLVNESET
